Results on one molecule are retold here after patent publication US20230133281A1 (CHROMOXYION, published 2023).

This experiment has as its target T1, Antigen SdW1a (free peptide) (Homo sapiens).
T1 construct: Synthetic peptide derived from DBY/DEAD; A KLH-conjugated form (SdW1b) was also used in screening; also called the antigen; 22-mer peptide
T1 peptide: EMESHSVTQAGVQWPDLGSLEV
Kind of experiment: supernatant ELISA on the antigen, hybridoma supernatant. As to the method: Screening: Hybridoma cells were grown for 10 days at which point the number of positive hybridoma colonies was determined and after a further 3 days' incubation an aliquot of antibody supernatant was taken for screening. The supernatant was assayed for reactivity to the antigens SdW1a (free peptide—SEQ ID NO. 347) and SdW1b (KLH-peptide), firstly by antigen microarray using an IgG-specific secondary antibody, followed by supernatant ELISA to confirm any positive antibody-producing clones.

B1: monoclonal antibody SdW1 RE5.B7.F9b (antibody, mouse IgG2a, V domains shown)
VH: EVKVEESGGGLVQPGGSMKISCVASGFTFKNYWMNWVRQSPEKGLEWVAEIRSKSNNNEKHYAESVKGRFTISRDDFKSSVYLQMNNLRTEDTGIYYCTGGTFDYWGQGTTLTVSS
VL: DVVVTQTPLSLPVSLGDQASISCRSSHSLVHSDGNTYLHWYLQKPGQSPKLLIYKVSNRFSGVPDRFSGSGSGTDFTLKISRVEAEDLGVYFCSQTTHVPPYTFGGGTQLEIK
notes: Tested as hybridoma culture supernatant; also called clone RE5; RE5 antibody
Consider B1, for which the binding result is “binds”.
